Reference: US11278600B2, “Human alpha-galactosidase variants” (Codexis, Inc., priority 2014, dated 2022)
Where a chain is given by its changes, count along the chain named.

B1: 253 (protein)
chain: LDNGLARTPTMGWLHWERFMCNLDCQEEPDSCISEKLFMEMAELMVSEGWKDAGYEYLCIDDCWMAPQRDSEGRLQADPQRFPHGIRQLANYVHSIGLKLGIYADVGNKTCAGFPGSFGYYDIDAQTFADWGVDLLKFDGCYCDSLENLADGYKHMSLALNRTGRSIVYSCEWPLYMWPFQKPNYTEIRQYCNHWRNFADIDDSWASIKSILDWTSFNQERIVDVAGPGGWNDPDMLVIGNFGLSWDQQVTQMALWAIMAAPLFMSNDLRHISPQAKALLQDKDVIAINQDPLGKQGYQLRKGDNFEVWERPLSGDAWAVAMINRQEIGGPRSYTIPVASLGKGVACNPACFITQLLPVKRKLGFYDWDSRLRSHINPTGTVLLQLENTMQMSLKDLL
modifications: Synthetic Polypeptide sequence of Variant No. 253 of mature Human GLA
B2: 263 (protein)
chain: B1 chain with I96K, L100F, R221K, D316L, M322V, P337A, D367E, D369T, I376V
modifications: Synthetic Polypeptide sequence of Variant No. 263 of mature Human GLA
B3: 260 (protein)
chain: B1 chain with I96K, L100F, K302Q, D316L, P337A, F365L, D367E, D369T, R373K, I376V
modifications: Synthetic Polypeptide sequence of Variant No. 260 of mature Human GLA
B4: 254 (protein)
chain: B1 chain with I96K, L100F, D247N, K302Q, D316L, P337A, D367E, D369T
modifications: Synthetic Polypeptide sequence of Variant No. 254 of mature Human GLA
B5: 255 (protein)
chain: LDNGLARTPTMGWLHWERFMCNLDCQEEPDSCISEKLFMEMAELMVSEGWKDAGYEYLCIDDCWMAPQRDSEGRLQADPQRFPHGIRQLANYVHSKGLKFGIYADVGNKTCAGFPGSFGYYDIDAQTFADWGVDLLKFDGCYCDSLENLADGYKHMSLALNRTGRSIVYSCEWPLYMWPFQKPNYTEIRQYCNHWRNFADIDDSWASVKSILDWTSFNQEKIVDVAGPGGWNDPDMLVIGNFGLSWDQQVTQMALWAIMAAPLFMSNDLRHISPQAKALLQDKDVIAINQDPLGKQGYQLRKGDNFEVWERPLSGLAWAVAIINRQEIGGPRSYTIAVASLGDGVACNPACFITQLLPVKRKLGLYEWTSRLRSHVNPTGTVLLQLENTMQMSLKDLL
modifications: Synthetic Polypeptide sequence of Variant No. 255 of mature Human GLA
B6: 259 (protein)
chain: B5 chain with V208I, K221R, D247N, K302Q, I322V, D343K, R373K
modifications: Synthetic Polypeptide sequence of Variant No. 259 of mature Human GLA
B7: 257 (protein)
chain: B5 chain with K221T, D247N, K302Q, I322M
modifications: Synthetic Polypeptide sequence of Variant No. 257 of mature Human GLA
B8: 262 (protein)
chain: B5 chain with V208I, I322V, D343K, R373K
modifications: Synthetic Polypeptide sequence of Variant No. 262 of mature Human GLA
B9: 258 (protein)
chain: B5 chain with K221T, D247N, L365F
modifications: Synthetic Polypeptide sequence of Variant No. 258 of mature Human GLA
B10: 261 (protein)
chain: B5 chain with V208I, K302Q, I322V, L365F
modifications: Synthetic Polypeptide sequence of Variant No. 261 of mature Human GLA
B11: 256 (protein)
chain: B5 chain with I322V
modifications: Synthetic Polypeptide sequence of Variant No. 256 of mature Human GLA

How the values were obtained:
Type in all cases: biochemical
[1] = HTP-analysis of supernatants pretreated with base (MUGal hydrolysis); conditions: challenge at pH 7.6; activity of the variant/activity of Rd2BB (SEQ ID NO: 10); yeast culture supernatant
Outline: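 Supernatants from INVSc1 yeast expressing GLA variants (SD-Ura, 66-84 h, 30° C) were mixed with McIlvaine buffer pH 7.0-8.2 or 200 mM sodium bicarbonate pH 9.1-9.7 and held 1-18 h at 37° C. Residual activity was then measured on MUGal at pH 4.8/4.3, 37° C, 30-180 min, by fluorescence (Ex 355/Em 448 nm).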

[2] = HTP-analysis of yeast culture supernatants, no challenge (MUGal hydrolysis); conditions: activity of the variant/activity of Rd2BB (SEQ ID NO: 10), yeast culture supernatant
Outline: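 GLA variants expressed in yeast INVSc1, secreted into SD-Ura broth over 66-84 h at 30° C; clarified supernatants tested without challenge. Supernatant mixed with McIlvaine buffer pH 4.8 and 2 mM MUGal (citrate/KCl, pH 4.6), 37° C for 30-180 min, carbonate-quenched, fluorescence Ex 355/Em 448 nm.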

[3] = HTP-analysis of supernatants pretreated with bovine serum (MUGal hydrolysis); conditions: activity of the variant/activity of Rd2BB (SEQ ID NO: 10), yeast culture supernatant
Method: Yeast (INVSc1) cells transformed with vectors expressing GLA and GLA variants using the lithium acetate method were selected on SD-Ura agar plates. After 72 h incubation at 30° C. colonies were placed into the wells of Axygen® 1.1 ml 96-well deep well plates filled with 200 μl/well SD-Ura broth (2 g/L SD-Ura, 6.8 g/L yeast nitrogen base without amino acids [Sigma Aldrich]), 3.06 g/L sodium dihydrogen phosphate, 0.804 g/L disodium hydrogen phosphate, pH 6.0 supplemented with 6% glucose. The cells were allowed to grow for 20-24 hours in a Kuhner shaker (250 rpm, 30° C., and 85% relative humidity). Overnight culture samples (20 μL) were transferred into Corning Costar® 96-well deep plates filled with 380 µL of SD-ura broth supplemented with 2% glucose. The plates were incubated for 66-84 h in a Kuhner shaker (250 rpm, 30° C., and 85% relative humidity). The cells were then pelleted (4000 rpm×20 min), and the supernatants isolated and stored at 4° C. prior to analysis.
GLA variants were challenged with bovine serum to simulate the conditions the variants encounter following infusion into a patient. First, 20 μL of yeast culture supernatant and 80 μL, of bovine serum were added to the wells of a 96-well round bottom plate. The plates were sealed and incubated at 37° C. for 1 h. For the assay, 50 μL of serum-challenged sample was mixed with 25 μL, of 1 M citrate buffer pH 4.3 and 25 μL, of 4 mM MUGal in McIlvaine buffer pH 4.8. The reactions were mixed briefly and incubated at 37° C. for 180 minutes, prior to quenching with 100 μL, of 1 M sodium carbonate. Hydrolysis was analyzed using a SpectraMax® M2 microplate reader monitoring fluorescence (Ex. 355 nm, Em. 448 nm).

[4] = HTP-analysis of supernatants pretreated with acid (MUGal hydrolysis); conditions: challenge at pH 4.2; activity of the variant/activity of Rd2BB (SEQ ID NO: 10); yeast culture supernatant
Outline: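 MUGal hydrolysis was tracked by fluorescence (Ex 355 nm, Em 448 nm) after a 30-180 min reaction at 37° C. in pH 4.8 McIlvaine/citrate buffer, stopped with 1 M sodium carbonate. Beforehand, yeast (INVSc1) culture supernatants carrying GLA variants were held 1-3 h at 37° C. in acidic McIlvaine buffer, pH 3.3-4.3.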

| Molecule | Relative Activity of GLA Variants After Challenge at pH 7.6 [1] | Relative Activity of GLA Variants After No Challenge (NC) [2] | Relative Activity of GLA Variants After Challenge with Serum [3] | Relative Activity of GLA Variants After Challenge at pH 4.2 [4] |
| --- | --- | --- | --- | --- |
| B1 | +++ (+++ = >2.5 relative activity over Rd2BB (SEQ ID NO: 10)) | +++ (+++ = >2.5 relative activity over Rd2BB (SEQ ID NO: 10)) | +++ (+++ = >2.5 relative activity over Rd2BB (SEQ ID NO: 10)) | +++ (+++ = >2.5 relative activity over Rd2BB (SEQ ID NO: 10)) |
| B2 | ++ (++ = 1.5 to 2.5 relative activity over Rd2BB (SEQ ID NO: 10)) | + (+ = 0.5 to 1.5 relative activity over Rd2BB (SEQ ID NO: 10)) | +++ (+++ = >2.5 relative activity over Rd2BB (SEQ ID NO: 10)) | ++ (++ = 1.5 to 2.5 relative activity over Rd2BB (SEQ ID NO: 10)) |
| B3 | + (+ = 0.5 to 1.5 relative activity over Rd2BB (SEQ ID NO: 10)) | + (+ = 0.5 to 1.5 relative activity over Rd2BB (SEQ ID NO: 10)) | + (+ = 0.5 to 1.5 relative activity over Rd2BB (SEQ ID NO: 10)) | + (+ = 0.5 to 1.5 relative activity over Rd2BB (SEQ ID NO: 10)) |
| B4 | + (+ = 0.5 to 1.5 relative activity over Rd2BB (SEQ ID NO: 10)) | + (+ = 0.5 to 1.5 relative activity over Rd2BB (SEQ ID NO: 10)) | + (+ = 0.5 to 1.5 relative activity over Rd2BB (SEQ ID NO: 10)) | + (+ = 0.5 to 1.5 relative activity over Rd2BB (SEQ ID NO: 10)) |
| B5 | +++ (+++ = >2.5 relative activity over Rd2BB (SEQ ID NO: 10)) | +++ (+++ = >2.5 relative activity over Rd2BB (SEQ ID NO: 10)) | ++ (++ = 1.5 to 2.5 relative activity over Rd2BB (SEQ ID NO: 10)) | +++ (+++ = >2.5 relative activity over Rd2BB (SEQ ID NO: 10)) |
| B6 | + (+ = 0.5 to 1.5 relative activity over Rd2BB (SEQ ID NO: 10)) | + (+ = 0.5 to 1.5 relative activity over Rd2BB (SEQ ID NO: 10)) | + (+ = 0.5 to 1.5 relative activity over Rd2BB (SEQ ID NO: 10)) | + (+ = 0.5 to 1.5 relative activity over Rd2BB (SEQ ID NO: 10)) |
| B7 | ++ (++ = 1.5 to 2.5 relative activity over Rd2BB (SEQ ID NO: 10)) | ++ (++ = 1.5 to 2.5 relative activity over Rd2BB (SEQ ID NO: 10)) | ++ (++ = 1.5 to 2.5 relative activity over Rd2BB (SEQ ID NO: 10)) | ++ (++ = 1.5 to 2.5 relative activity over Rd2BB (SEQ ID NO: 10)) |
| B8 | +++ (+++ = >2.5 relative activity over Rd2BB (SEQ ID NO: 10)) | ++ (++ = 1.5 to 2.5 relative activity over Rd2BB (SEQ ID NO: 10)) | +++ (+++ = >2.5 relative activity over Rd2BB (SEQ ID NO: 10)) | +++ (+++ = >2.5 relative activity over Rd2BB (SEQ ID NO: 10)) |
| B9 | +++ (+++ = >2.5 relative activity over Rd2BB (SEQ ID NO: 10)) | +++ (+++ = >2.5 relative activity over Rd2BB (SEQ ID NO: 10)) | ++ (++ = 1.5 to 2.5 relative activity over Rd2BB (SEQ ID NO: 10)) | ++ (++ = 1.5 to 2.5 relative activity over Rd2BB (SEQ ID NO: 10)) |
| B10 | ++ (++ = 1.5 to 2.5 relative activity over Rd2BB (SEQ ID NO: 10)) | ++ (++ = 1.5 to 2.5 relative activity over Rd2BB (SEQ ID NO: 10)) | + (+ = 0.5 to 1.5 relative activity over Rd2BB (SEQ ID NO: 10)) | ++ (++ = 1.5 to 2.5 relative activity over Rd2BB (SEQ ID NO: 10)) |
| B11 | +++ (+++ = >2.5 relative activity over Rd2BB (SEQ ID NO: 10)) | ++ (++ = 1.5 to 2.5 relative activity over Rd2BB (SEQ ID NO: 10)) | +++ (+++ = >2.5 relative activity over Rd2BB (SEQ ID NO: 10)) | +++ (+++ = >2.5 relative activity over Rd2BB (SEQ ID NO: 10)) |
